Read-outs that look alike come from different tables or passages of the source. Each block holds one molecule with its values, some of them ahead of it.
Columns and labels:
[1] = target: T1, putrescine monooxygenase (SpPMO) (Shewanella putrefaciens, UniProt A0A4D6BRL2); assay: Csaky iodine oxidation product-formation assay with […] enzyme; Lineweaver-Burk plots; type: biochemical
T1 construct: gene pubA
T1 sequence (A0A4D6BRL2 1-505): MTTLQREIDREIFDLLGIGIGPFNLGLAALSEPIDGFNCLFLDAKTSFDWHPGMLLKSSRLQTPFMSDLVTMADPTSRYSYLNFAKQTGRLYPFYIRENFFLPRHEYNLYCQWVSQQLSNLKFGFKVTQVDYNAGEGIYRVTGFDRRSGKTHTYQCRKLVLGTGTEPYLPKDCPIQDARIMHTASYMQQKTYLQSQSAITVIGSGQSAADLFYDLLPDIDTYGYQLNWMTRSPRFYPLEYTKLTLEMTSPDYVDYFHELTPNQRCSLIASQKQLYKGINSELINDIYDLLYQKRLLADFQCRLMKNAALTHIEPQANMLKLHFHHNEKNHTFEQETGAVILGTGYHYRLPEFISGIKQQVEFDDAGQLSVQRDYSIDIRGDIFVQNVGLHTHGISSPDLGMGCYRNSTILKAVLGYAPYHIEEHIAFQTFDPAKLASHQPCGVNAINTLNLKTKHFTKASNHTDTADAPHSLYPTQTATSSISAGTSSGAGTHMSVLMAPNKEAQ

[2] = substrate: NCCCCN; assay: Michaelis-Menten kinetics, N-hydroxyl putrescine formation by Csaky iodine oxidation assay (Km); type: biochemical, Shewanella putrefaciens; settings: FAD
[3] = NADPH putrescine binding pocket: Pro22, Phe23, Gly26, Leu399, Gly402 and Asn406 (docking)

Molecule: COc1cc(/C=C/C(=O)CC(=O)/C=C/c2ccc(O)c(OC)c2)ccc1O [curcumin]
Ki [1]: 2.6 ± 0.0036 µM

Ki ([1]; read-out: Ki): 18.38 ± 0.008 µM
Molecule: C[C@@H]1O[C@@H](Oc2ccc(CC#N)cc2)[C@H](O)[C@H](O)[C@H]1O [niazirin]

B1: putrescine monooxygenase (SpPMO) (Shewanella putrefaciens) (protein)
chain: MTTLQREIDREIFDLLGIGIGPFNLGLAALSEPIDGFNCLFLDAKTSFDWHPGMLLKSSRLQTPFMSDLVTMADPTSRYSYLNFAKQTGRLYPFYIRENFFLPRHEYNLYCQWVSQQLSNLKFGFKVTQVDYNAGEGIYRVTGFDRRSGKTHTYQCRKLVLGTGTEPYLPKDCPIQDARIMHTASYMQQKTYLQSQSAITVIGSGQSAADLFYDLLPDIDTYGYQLNWMTRSPRFYPLEYTKLTLEMTSPDYVDYFHELTPNQRCSLIASQKQLYKGINSELINDIYDLLYQKRLLADFQCRLMKNAALTHIEPQANMLKLHFHHNEKNHTFEQETGAVILGTGYHYRLPEFISGIKQQVEFDDAGQLSVQRDYSIDIRGDIFVQNVGLHTHGISSPDLGMGCYRNSTILKAVLGYAPYHIEEHIAFQTFDPAKLASHQPCGVNAINTLNLKTKHFTKASNHTDTADAPHSLYPTQTATSSISAGTSSGAGTHMSVLMAPNKEAQ
Km ([2]; NADPH): 3.81 µM
Vmax [2, 3]: 0.246 µmol/min/mg
kcat [2, 3]: 0.237 s⁻¹
